Measured values published in doi:10.1101/2021.09.08.459485 (2021).

T1: SARS-CoV-2 Spike protein peptide on HLA-DPB1*04:01 (human)
T1 peptide: TFEYVSQPFLMDLE

T2: SARS-CoV-2 Spike protein peptide on HLA-DPB1*04:01 (human)
T2 peptide: CTFEYVSQPFLMDLE


What was measured:
[1] = biological target: T1, SARS-CoV-2 Spike protein peptide on …; test: multimer staining
[2] = biological target: T2, SARS-CoV-2 Spike protein peptide on …; test: activation reporter or marker

Row | Binder | binding result [1] | binding result [2]
1 | TCR6.3 (TCR) alpha TRAV35 TRAJ42 CDR3: CAGMNYGGSQGNLIF beta TRBV6-3 TRBJ1-2 CDR3: CASSYRGAYGYTF | recognises | recognises
2 | TCR4.1 (TCR) alpha TRAV35 TRAJ42 CDR3: CAGMNYGGSQGNLIF beta TRBV4-1 TRBJ1-2 CDR3: CASSQGVGYTF | recognises | recognises
